Molecular target: T1, rhVEGFR1-Fc (R&D Systems, Minneapolis, Minn.) (human, UniProt P17948-2 27-687, limits assumed)
T1 construct: It was captured on plates by an anti-Fc antibody; also called Flt-1; not shown: Fc part of the bought fusion
Assay: cell-free plate assay: rhVEGFR1-Fc captured by anti-Fc, VEGF165 titrated, Kd from the double reciprocal plot; heparin level not given
Procedure: Plates were washed five times with wash buffer (0.05% Tween-20 in PBS, pH 7.2-7.4) the next morning and blocked with blocking buffer (2% bovine serum albumin and 0.05% Tween-20 in PBS) for 1 hour at 37° C. […] Substrate reaction was stopped with 2N sulfuric acid and the signal was visualized with a FLUOstar Omega microplate reader (BMG Labtech, Cary, N.C.) at 450 nm.
All other outcomes were analyzed with analysis of variance.

T1 sequence (P17948 other isoform, or with tags, fused parts or gaps limits assumed): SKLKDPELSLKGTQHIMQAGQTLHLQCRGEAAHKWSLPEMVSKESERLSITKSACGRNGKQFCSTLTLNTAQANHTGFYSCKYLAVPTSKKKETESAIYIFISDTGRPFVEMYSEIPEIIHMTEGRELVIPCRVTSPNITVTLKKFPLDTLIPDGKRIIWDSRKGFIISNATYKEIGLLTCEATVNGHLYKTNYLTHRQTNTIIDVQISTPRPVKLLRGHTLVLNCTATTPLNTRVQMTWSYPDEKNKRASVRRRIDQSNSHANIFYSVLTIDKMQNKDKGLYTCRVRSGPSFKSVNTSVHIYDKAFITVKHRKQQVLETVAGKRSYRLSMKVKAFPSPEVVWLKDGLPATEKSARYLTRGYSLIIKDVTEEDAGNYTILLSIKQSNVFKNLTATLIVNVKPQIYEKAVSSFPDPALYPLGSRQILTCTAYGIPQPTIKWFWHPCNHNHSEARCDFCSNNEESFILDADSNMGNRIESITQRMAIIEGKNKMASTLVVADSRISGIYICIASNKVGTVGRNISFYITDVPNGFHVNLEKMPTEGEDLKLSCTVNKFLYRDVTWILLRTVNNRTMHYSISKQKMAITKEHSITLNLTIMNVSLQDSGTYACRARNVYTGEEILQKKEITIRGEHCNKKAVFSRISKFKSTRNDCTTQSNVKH

B1: rhVEGF-165 (Shire, Lexington, Mass.) (ligand)
chain: APMAEGGGQNHHEVVKFMDVYQRSYCHPIETLVDIFQEYPDEIEYIFKPSCVPLMRCGGCCNDEGLECVPTEESNITMQIMRIKPHQGQHIGEMSFLQHNKCECRPKKDRARQENPCGPCSERRKHLFVQDPQTCKCSCKNTDSRCKARQLELNERTCRCDKPRR
- Kd: 8.14 ng/mL
